This assay has as its target recombinant PhaC (PHA synthase Class III) from Arthrospira platensis (Arthrospira platensis). The experiment in a line: SEC; Sephadex-G50 column, 100 mM sodium phosphate pH 7.4, 1 mL/min, A280; masses estimated from retention times of standards (alcohol dehydrogenase 150 kDa, BSA 66 kDa, ovalbumin 44 kDa); dimer and monomer peaks both seen.

A word on the stoichiometry N: it is a count of units in the complex or per binding partner.

For “recombinant PhaC (PHA synthase Class III) from Arthrospira platensis (enzyme)”, the stoichiometry N is 2.

These data come from PMC10215190.
